Source: IntAct's records for PubMed 22483112

Molecular target: myh9_human MYH9 (UniProt P35579)
Sequence (P35579 whole entry): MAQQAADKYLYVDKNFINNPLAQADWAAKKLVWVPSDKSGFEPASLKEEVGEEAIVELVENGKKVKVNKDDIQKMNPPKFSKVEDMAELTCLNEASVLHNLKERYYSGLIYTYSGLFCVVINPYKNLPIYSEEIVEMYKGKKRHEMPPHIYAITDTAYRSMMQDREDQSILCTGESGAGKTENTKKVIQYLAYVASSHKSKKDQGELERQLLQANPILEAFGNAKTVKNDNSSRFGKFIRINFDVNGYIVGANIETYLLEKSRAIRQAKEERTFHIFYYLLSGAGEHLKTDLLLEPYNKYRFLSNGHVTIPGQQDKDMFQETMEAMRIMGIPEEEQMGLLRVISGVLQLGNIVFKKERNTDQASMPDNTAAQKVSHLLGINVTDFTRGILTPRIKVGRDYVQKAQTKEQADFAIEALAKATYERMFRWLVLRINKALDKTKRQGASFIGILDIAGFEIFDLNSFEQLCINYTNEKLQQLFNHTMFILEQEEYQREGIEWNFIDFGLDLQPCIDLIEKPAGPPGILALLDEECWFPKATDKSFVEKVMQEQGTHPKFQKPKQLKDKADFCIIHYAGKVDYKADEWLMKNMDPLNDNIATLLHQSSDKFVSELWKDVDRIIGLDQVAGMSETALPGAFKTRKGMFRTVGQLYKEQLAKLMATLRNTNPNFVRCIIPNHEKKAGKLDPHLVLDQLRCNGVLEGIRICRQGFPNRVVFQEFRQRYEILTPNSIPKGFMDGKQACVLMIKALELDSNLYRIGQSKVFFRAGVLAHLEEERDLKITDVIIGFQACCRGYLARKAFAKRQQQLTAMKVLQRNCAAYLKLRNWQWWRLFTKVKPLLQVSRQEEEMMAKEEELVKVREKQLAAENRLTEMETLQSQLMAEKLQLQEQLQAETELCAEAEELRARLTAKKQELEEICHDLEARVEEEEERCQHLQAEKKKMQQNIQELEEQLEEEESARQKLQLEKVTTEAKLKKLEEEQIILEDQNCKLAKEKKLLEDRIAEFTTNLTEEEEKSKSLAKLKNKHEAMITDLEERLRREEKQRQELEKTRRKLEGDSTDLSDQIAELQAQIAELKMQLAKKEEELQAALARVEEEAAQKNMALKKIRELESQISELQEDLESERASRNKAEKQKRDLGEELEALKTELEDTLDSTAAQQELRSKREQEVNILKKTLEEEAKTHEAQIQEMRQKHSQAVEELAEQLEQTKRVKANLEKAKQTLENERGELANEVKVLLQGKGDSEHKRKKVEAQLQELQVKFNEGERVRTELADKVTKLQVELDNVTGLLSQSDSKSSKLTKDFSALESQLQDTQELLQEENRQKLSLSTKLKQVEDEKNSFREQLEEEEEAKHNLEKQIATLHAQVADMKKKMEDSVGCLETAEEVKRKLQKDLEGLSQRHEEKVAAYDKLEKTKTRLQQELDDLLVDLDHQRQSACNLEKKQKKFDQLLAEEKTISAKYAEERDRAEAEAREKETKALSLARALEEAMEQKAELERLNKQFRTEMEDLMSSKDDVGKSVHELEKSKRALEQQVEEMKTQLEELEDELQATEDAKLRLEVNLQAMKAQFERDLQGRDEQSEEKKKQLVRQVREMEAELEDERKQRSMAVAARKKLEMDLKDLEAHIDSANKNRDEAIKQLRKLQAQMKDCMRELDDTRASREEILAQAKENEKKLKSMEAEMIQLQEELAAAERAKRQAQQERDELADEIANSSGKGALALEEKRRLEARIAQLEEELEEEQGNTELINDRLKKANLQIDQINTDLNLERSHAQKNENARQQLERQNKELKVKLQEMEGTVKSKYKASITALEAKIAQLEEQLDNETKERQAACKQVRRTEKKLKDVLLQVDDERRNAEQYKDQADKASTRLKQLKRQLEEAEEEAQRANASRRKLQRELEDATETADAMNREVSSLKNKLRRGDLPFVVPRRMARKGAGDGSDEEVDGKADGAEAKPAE

Chain of Protein S100-A4 (Homo sapiens), P26447 C81D (P26447 whole entry C81D): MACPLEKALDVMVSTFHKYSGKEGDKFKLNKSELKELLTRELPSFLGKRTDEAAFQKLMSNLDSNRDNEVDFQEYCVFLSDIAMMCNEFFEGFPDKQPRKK

effect of a mutation on the interaction | Substance
disrupting interaction strength | Protein S100-A4 (Homo sapiens), P26447 C81D
disrupting interaction strength | Protein S100-A4 (Homo sapiens), P26447 V77D
